Assay results: patent US20260008857A1 (FLAGSHIP PIONEERING INNOVATIONS VI, published 2026)

Molecular target: T1, human IL-4Rα (interleukin 4 receptor subunit alpha) (human, UniProt P24394 26-232, limits assumed)
T1 sequence (looked up): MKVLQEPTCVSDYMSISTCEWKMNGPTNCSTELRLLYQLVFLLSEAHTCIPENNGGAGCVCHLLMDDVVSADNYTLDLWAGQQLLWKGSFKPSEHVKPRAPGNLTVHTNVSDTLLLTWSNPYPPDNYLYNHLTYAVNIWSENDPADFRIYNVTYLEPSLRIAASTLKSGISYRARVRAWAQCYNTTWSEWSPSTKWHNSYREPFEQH
Assay: cell-based or functional assay

IC50 (read off the curve): ~0.4 nM
B1: AB-12d (antibody, human IgG1, kappa)
heavy chain: not shown
light chain: DIVMTQSPLSLPVTPGEPASISCRSSQSLLYSQGYNYLDWYLQKSGQSPQLLIYLASNRASGVPDRFSGSGSGTDFTLKISRVEAEDVGFYYCMQSLFTPYTFGQGTKLEIKRTVAAPSVFIFPPSDEQLKSGTASVVCLLNNFYPREAKVQWKVDNALQSGNSQESVTEQDSKDSTYSLSSTLTLSKADYEKHKVYACEVTHQGLSSPVTKSFNRGEC
